Results on 16 molecules are retold here after article PMC4670726 (2015).

The chains are these.
B1: JNK1 (as used in the fluorescence polarization titrations) (enzyme)
chain: MSRSKRDNNFYSVEIGDSTFTVLKRYQNLKPIGSGAQGIVCAAYDAILERNVAIKKLSRPFQNQTHAKRAYRELVLMKCVNHKNIIGLLNVFTPQKSLEEFQDVYIVMELMDANLCQVIQMELDHERMSYLLYQMLCGIKHLHSAGIIHRDLKPSNIVVKSDCTLKILDFGLARTAGTSFMMTPYVVTRYYRAPEVILGMGYKENVDLWSVGCIMGEMVCHKILFPGRDYIDQWNKVIEQLGTPCPEFMKKLQPTVRTYVENRPKYAGYSFEKLFPDVLFPADSEHNKLKASQARDLLSKMLVIDASKRISVDEALQHPYINVWYDPSEAEAPPPKIPDKQLDEREHTIEEWKELIYKEVMDLEERTKNGVIRGQPSPLGAAVINGSQHPSSSSSVNDVSSMSTDPTLASDTDSSLEAAAGPLGCCR

Ends that are not written are not given here.

For the first experiment, the target named is ERK2 (as used in the fluorescence polarization titrations) (human, UniProt P28482 1-360). Nature of the experiment: FP.
The term Kd denotes the constant that tells how readily two partners part at equilibrium. A lower Kd goes with a tighter complex. Take KKIQPKLSLT (not fully specified) [JAZF1 peptide]: the affinity, expressed as Kd, was 15 µM.

KKKSKPLNLKIH (not fully specified) [KSR2 peptide] showed a dissociation constant (Kd) of 13.5 µM.

KRRSLRVHIP (not fully specified) [AAKG2 peptide] yielded a Kd of 17.5 µM.

The molecule KEKSGSLKLRIP (not fully specified) [CCNT2 peptide] gave a Kd of 14.4 µM.

For RPQDLNL (not fully specified) [MKP5 peptide], the Kd turned out to be 84.7 µM. Compared with the last molecule, the Kd is about 5.9-fold higher.

The molecule RHRDKRLSLNLP (not fully specified) [GAB3 peptide] showed a Kd of 22.6 µM.

In turn, RPKSLQL (not fully specified) [DOCK5 peptide] came in with a Kd of 31.8 µM.

Molecule RPASLNL (not fully specified) [DOCK7 peptide] gave a dissociation constant (Kd) of 51.2 µM. Compared with the last molecule, the Kd is about 1.6-fold higher.

For the next experiment, the target named is p38α (as used in the fluorescence polarization titrations) (human, UniProt Q16539 1-360). Nature of the experiment: FP.
Molecule KKIQPKLSLT (not fully specified) [JAZF1 peptide] registered a dissociation constant Kd of 8.9 µM. This counts as single-digit micromolar.

KKKSKPLNLKIH (not fully specified) [KSR2 peptide] gave a dissociation constant (Kd) of 4.9 µM.

Regarding KRRSLRVHIP (not fully specified) [AAKG2 peptide], the dissociation constant (Kd) is 8.2 µM.

On to KEKSGSLKLRIP (not fully specified) [CCNT2 peptide], for which the Kd is 24.5 µM. This Kd is about 3-fold higher than that of the molecule before.

The molecule RPTRLSL (not fully specified) [IRS1 peptide] had a dissociation constant Kd of 74.6 µM. This Kd is about 3-fold higher than that of the molecule before.

As for RHRDKRLSLNLP (not fully specified) [GAB3 peptide], binding was put at a Kd of 5.2 µM.

With RKHKDLYLPL (not fully specified) [DCX peptide], the Kd came to 29.5 µM. Against the preceding molecule, the Kd is about 5.7-fold higher.

As for LQRKKPPWLKLDIP (not fully specified) [RHDF1 peptide], the Kd is 1.2 µM.

Another experiment concerns the target B1. Nature of the experiment: FP.
For KKKSKPLNLKIH (not fully specified) [KSR2 peptide], the dissociation constant (Kd) is 24.7 µM.

In turn, RPTRLSL (not fully specified) [IRS1 peptide] returned a Kd of 3.5 µM.

With RPQDLNL (not fully specified) [MKP5 peptide], the dissociation constant Kd is 19.3 µM. Against the preceding molecule, the Kd is about 5.5-fold higher.

Regarding RHRDKRLSLNLP (not fully specified) [GAB3 peptide], binding was characterised by a dissociation constant (Kd) of 14.5 µM.

The molecule RKHKDLYLPL (not fully specified) [DCX peptide] came in with a Kd of 16.7 µM.

Molecule RPKSLQL (not fully specified) [DOCK5 peptide] showed a Kd of 5.1 µM.

Molecule RPTTLPL (not fully specified) [PDE4B peptide] registered a Kd of 16.4 µM.

On to RPASLNL (not fully specified) [DOCK7 peptide], for which the dissociation constant Kd is 7.3 µM.

Molecule RPKSLNL (not fully specified) [APBA2 peptide] registered a Kd of 10.8 µM.

DPLHPTL (also: non-native Glu flanks added at both ends, number not given here) [ATF7 peptide] showed a Kd of 21.1 µM.

The molecule RPTSLAL (not fully specified) [MYO9B peptide] had a dissociation constant Kd of 15.9 µM.

Another experiment deals with GAB3+ peptide. Briefly: FP.
Consider B1, for which binding was characterised by a dissociation constant (Kd) of 13.2 µM.
